Results reported in PMC5986797, “Laminin heparin-binding peptides bind to several growth factors and enhance diabetic wound healing” (Nature Communications, 2018).

B1: laminin peptide LAMA3_(2932–2951) (peptide, UniProt Q16787 2932-2951, looked up)
peptide: PPFLMLLKGSTRFNKTKTFR
notes: laminin subunit alpha-3, human, residues 2932-2951, from the LG3-LG4 linker; source: synthetic peptide (Genscript)
B2: FGF-18 (ligand, UniProt O76093 28-207, looked up)
chain: EENVDFRIHVENQTRARDDVSRKQLRLYQLYSRTSGKHIQVLGRRISARGEDGDKYAQLLVETDTFGSQVRIKGKETEFYLCMNRKGKLVGKPDGTSKECVFIEKVLENNYTALMSAKYSGWYVGFTKKGRPRKGPKTRENQQDVHFMKRYPKGQPELQKPFKYTTVTKRSRRIRPTHPA
notes: fibroblast growth factor 18, bought in its mature form; source: bought: PeproTech; produced in Escherichia coli
B3: BMP-3 (ligand, UniProt P12645 363-472, looked up)
chain: QWIEPRNCARRYLKVDFADIGWSEWIISPKSFDAYYCSGACQFPMPKSLKPSNHATIQSIVRAVGVVPGIPEPCCVPEKMSSLSILFFDENKNVVLKVYPNMTVESCACR
notes: bone morphogenetic protein 3, bought in its mature form; source: bought: PeproTech; produced in Escherichia coli
B4: NT-3 (ligand, UniProt P20783 139-257, looked up)
chain: YAEHKSHRGEYSVCDSESLWVTDKSSAIDIRGHQVTVLGEIKTGNSPVKQYFYETRCKEARPVKNGCRGIDDKHWNSQCKTSQTYVRALTSENNKLVGWRWIRIDTSCVCALSRKIGRT
notes: neurotrophin-3, bought in its mature form; also called neurotrophin NT-3; source: bought: PeproTech; produced in Escherichia coli
B5: FGF-7 (ligand, UniProt P21781 32-194, looked up)
chain: CNDMTPEQMATNVNCSSPERHTRSYDYMEGGDIRVRRLFCRTQWYLRIDKRGKVKGTQEMKNNYNIMEIRTVAVGIVAIKGVESEFYLAMNKEGKLYAKKECNEDCNFKELILENHYNTYASAKWTHNGGEMFVALNQKGIPVRGKKTKKEQKTAHFLPMAIT
notes: fibroblast growth factor 7, bought in its mature form; source: bought: PeproTech; produced in Escherichia coli
B6: FGF-10 (ligand, UniProt O15520 38-208, looked up)
chain: QALGQDMVSPEATNSSSSSFSSPSSAGRHVRSYNHLQGDVRWRKLFSFTKYFLKIEKNGKVSGTKKENCPYSILEITSVEIGVVAVKAINSNYYLAMNKKGKLYGSKEFNNDCKLKERIEENGYNTYASFNWQHNGRQMYVALNGKGAPRRGQKTRRKNTSAHFLPMVVHS
notes: fibroblast growth factor 10, bought in its mature form; source: bought: PeproTech; produced in Escherichia coli
B7: BMP-2 (ligand, UniProt P12643 283-396, looked up)
chain: QAKHKQRKRLKSSCKRHPLYVDFSDVGWNDWIVAPPGYHAFYCHGECPFPLADHLNSTNHAIVQTLVNSVNSKIPKACCVPTELSAISMLYLDENEKVVLKNYQDMVVEGCGCR
notes: bone morphogenetic protein 2, bought in its mature form; source: bought: PeproTech; produced in Escherichia coli

Biological target: T1, FGF-2 (human, UniProt P09038 143-288)
T1 construct: fibroblast growth factor 2, human, bought in its mature form; source: bought: PeproTech; produced in Escherichia coli
T1 sequence (P09038 143-288): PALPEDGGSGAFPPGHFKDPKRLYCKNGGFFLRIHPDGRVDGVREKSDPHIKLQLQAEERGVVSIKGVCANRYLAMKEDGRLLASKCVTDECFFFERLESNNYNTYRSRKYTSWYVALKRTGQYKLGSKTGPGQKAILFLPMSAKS
Assay: ELISA; plates coated with laminin peptide (10 µg/mL by the legend, 1 μg/mL by the methods); 1 μg/mL GF added; bound GF detected with an antibody for each GF; BSA-coated wells as control
Settings: both partners purified

Binding result, binds:
B1

Biological target: T2, recombinant human laminin-111 (human, UniProt P25391 18-3075; P07942 22-1786; P11047 34-1609)
T2 construct: laminin subunit alpha-1, human; chain told by the isoform's name; laminin subunit beta-1, human; laminin subunit gamma-1, human; source: bought: BioLamina (recombinant human, >95% purity); copies: + +
Assay: ELISA; plates coated with 50 nM GF or chemokine in PBS; 10 nM laminin isoform in PBS added; bound laminin detected with anti-LAMC1 or anti-LAMA3 polyclonal antibody; A450 signals greater than 0.1 taken as binding; BSA-coated wells as control
Settings: both partners purified

Binding result, binds:
B2
B3
B4
B5
B6
B7

Biological target: T3, recombinant human laminin-211 (human, UniProt P24043 23-3122; P07942 22-1786; P11047 34-1609)
T3 construct: laminin subunit alpha-2, human; chain told by the isoform's name; laminin subunit beta-1, human; laminin subunit gamma-1, human; source: bought: BioLamina (recombinant human, >95% purity); copies: + +
Assay: as above
Settings: both partners purified

Binding result, binds:
B2
B3
B4
B5
B6
B7

Biological target: T4, recombinant human laminin-511 (human, UniProt O15230 36-3695; P07942 22-1786; P11047 34-1609)
T4 construct: laminin subunit alpha-5, human; chain told by the isoform's name; laminin subunit beta-1, human; laminin subunit gamma-1, human; source: bought: BioLamina (recombinant human, >95% purity); copies: + +
Assay: as above
Settings: both partners purified

Binding result, binds:
B2
B3
B4
B5
B6
B7

Biological target: T5, recombinant human laminin-521 (human, UniProt O15230 36-3695; P55268 33-1798; P11047 34-1609)
T5 construct: laminin subunit alpha-5, human; chain told by the isoform's name; laminin subunit beta-2, human; laminin subunit gamma-1, human; also called laminin isoform-521; source: bought: BioLamina (recombinant human, >95% purity); copies: + +
Assay: as above
Settings: both partners purified

Binding result, binds:
B2
B3
B4
B5
B6
B7
